Patent publication US11306156

What was measured:
[1] = biological target: tissue factor (TF) antigen (UniProt P13726); test: SPR (ProteOn XPR36): His-tagged Fab captured on anti-penta-His surface, TF as analyte, 1:1 fit
[2] = biological target: tissue factor (TF) antigen (UniProt P13726); test: SPR; reference wild-type D3H44 Fab
[3] = biological target: tissue factor (TF) antigen (UniProt P13726); test: SPR, Fab captured by anti-His, TF as analyte
[4] = biological target: tissue factor (TF) antigen (UniProt P13726); test: SPR; against wild-type D3H44 Fab
[5] = biological target: tissue factor (TF) antigen (UniProt P13726); test: SPR (ProteOn), Fab captured on anti-penta His, TF as analyte, 1:1 fit
[6] = biological target: tissue factor (TF) antigen (UniProt P13726); test: SPR; log ratio against wild-type D3H44 Fab
[7] = biological target: tissue factor (TF) antigen (UniProt P13726); test: SPR (ProteOn XPR36): Fab captured via His tag on anti-penta-His, TF as analyte, 1:1 fit

Sequence of tissue factor (TF) antigen (P13726 33-251 limits assumed): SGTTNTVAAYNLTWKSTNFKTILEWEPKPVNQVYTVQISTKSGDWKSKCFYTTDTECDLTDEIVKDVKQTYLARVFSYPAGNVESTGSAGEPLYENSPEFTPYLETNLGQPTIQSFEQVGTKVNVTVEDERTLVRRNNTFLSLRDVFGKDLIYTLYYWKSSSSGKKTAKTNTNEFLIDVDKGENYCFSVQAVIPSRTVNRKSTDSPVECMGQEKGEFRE

D3H44 H1L1 Fab heterodimer of LCCA set 9066 (H1 F122C_L124E; L1 Q124C_V133G_S176R)
Change in median values of KD of h1|1 Fab heterodimer compared to wild type (-(log(KD design)-log(KD wt))) [1]: -0.04 log units | Kd [1]: 0.17 nM

D3H44 Fab heterodimer, heavy L124E_L143E_K145M / light Q124K_V133G_S176R_T178K
Change in KD of h1|1 Fab heterodimer with respect to wild type (-(log(KD design) - log(KD wt))) [2]: -0.19 | Kd [3]: 0.24 nM

D3H44 H1L1 Fab heterodimer of LCCA set 9060 (H1 A139W_L143E_K145T_Q179E; L1 F116A_Q124R_L135V_T178R)
Change in median values of KD of h1|1 Fab heterodimer compared to wild type (-(log(KD design)-log(KD wt))) [1]: 0.04 log units | Kd [1]: 0.14 nM

D3H44 Fab heterodimer, heavy L124E_L143E_K145M / light Q124K_V133G_Q160K_S176R
Change in KD of h1|1 Fab heterodimer with respect to wild type (-(log(KD design) - log(KD wt))) [2]: -0.26 | Kd [3]: 0.28 nM

D3H44 H1L1 Fab heterodimer of LCCA sets 9101 and 9100 (H1 L124A_Q179K; L1 Q124E_V133W_T180E)
Change in median values of KD of h1|1 Fab heterodimer compared to wild type (-(log(KD design)-log(KD wt))) [1]: 0.1 log units | Kd [1]: 0.12 nM

D3H44 H1L1 Fab heterodimer of LCCA sets 9786 and 9785 (H1 Q179K; L1 Q124E_T178E_T180E)
Change in median values of KD of h1|1 Fab heterodimer compared to wild type (-(log(KD design)-log(KD wt))) [1]: 0.1 log units | Kd [1]: 0.13 nM

D3H44 Fab heterodimer, heavy L124E_L143E_K145M / light Q124K_V133G_S176R_T178R
Change in KD of h1|1 Fab heterodimer with respect to wild type (-(log(KD design) - log(KD wt))) [2]: -0.29 | Kd [3]: 0.31 nM

D3H44 Fab heterodimer, heavy L124R_S186K / light Q124E_V133G_S176D_T178D_T180E
Change in KD of h2|2 Fab heterodimer with respect to wild type (-(log(KD design) - log(KD wt))) [2]: -0.23 | Kd [3]: 0.26 nM

D3H44 Fab heterodimer, H1 A139G_V190A / L1 L135W_S176L (H1L1 of LCCA set 9056)
Change in KD with respect to wild type (-(log(KD design) - log(KD wt))) [4]: -0.02 | Kd [5]: 0.16 nM

D3H44 Fab heterodimer, heavy L124R_S186R / light Q124E_V133G_S176D_T178D_T180E
Change in KD of h2|2 Fab heterodimer with respect to wild type (-(log(KD design) - log(KD wt))) [2]: -0.21 | Kd [3]: 0.26 nM

D3H44 Fab heterodimer, H1 S186R / L1 Q124E_T180E (H1L1 of LCCA set 9900)
Change in KD with respect to wild type (-(log(KD design) - log(KD wt))) [4]: 0.36 | Kd [5]: 0.07 nM

D3H44 H1L1 Fab heterodimer of LCCA sets 9571 and 9572 (H1 L124W_L143F_K145T_Q179E; L1 S131K_V133A_S176T_T178L)
Change in median values of KD of h1|1 Fab heterodimer compared to wild type (-(log(KD design)-log(KD wt))) [1]: -0.21 log units | Kd [1]: 0.26 nM

D3H44 Fab heterodimer, H1 L143E_K145T_Q179D / L1 Q124R_Q160K_T178R (H1L1 of LCCA set 9620)
Change in KD with respect to wild type (-(log(KD design) - log(KD wt))) [4]: 0.39 | Kd [5]: 0.06 nM

D3H44 Fab heterodimer, H1 A139W_S188L / L1 F116A_L135V (H1L1 of LCCA sets 9063 and 9062)
Change in KD with respect to wild type (-(log(KD design) - log(KD wt))) [4]: -0.02 | Kd [5]: 0.17 nM

D3H44 Fab heterodimer, H1 L124E_L143D_K145T / L1 Q124K_V133G_S176R_T178K (H1L1 of LCCA sets 9216 and 9220)
Change in KD with respect to wild type (-(log(KD design) - log(KD wt))) [4]: -0.08 | Kd [5]: 0.19 nM

D3H44 Fab heterodimer, H1 K145T_Q179E / L1 S131K (H1L1 of LCCA set 9082)
Change in KD with respect to wild type (-(log(KD design) - log(KD wt))) [4]: -0.01 | Kd [5]: 0.16 nM

D3H44 Fab heterodimer, heavy L124E_L143E_K145T / light Q124K_V133G_Q160K_S176R
Change in KD of h1|1 Fab heterodimer with respect to wild type (-(log(KD design) - log(KD wt))) [2]: -0.12 | Kd [3]: 0.2 nM

D3H44 Fab heterodimer, H1 L124E_H172T / L1 V133G_N137K_S174R_S176R (H1L1 of LCCA set 9120)
Change in KD with respect to wild type (-(log(KD design) - log(KD wt))) [4]: 0.08 | Kd [5]: 0.13 nM

D3H44 Fab heterodimer, H1 L124E_L143D_K145M / L1 Q124K_V133G_S176R_T178K (H1L1 of LCCA set 9178)
Change in KD with respect to wild type (-(log(KD design) - log(KD wt))) [4]: -0.15 | Kd [5]: 0.22 nM

D3H44 Fab heterodimer, H1 Q179K / L1 Q124E_T178E (H1L1 of LCCA set 9783)
Change in KD with respect to wild type (-(log(KD design) - log(KD wt))) [4]: 0.05 | Kd [5]: 0.14 nM

D3H44 Fab heterodimer, heavy L124R_Q179K / light V133G_S176D_T178E_T180E
Change in KD of h2|2 Fab heterodimer with respect to wild type (-(log(KD design) - log(KD wt))) [2]: -0.16 | Kd [3]: 0.23 nM

D3H44 Fab heterodimer, heavy L124R_Q179K / light Q124E_V133G_S176D_T178E_T180E
Change in KD of h2|2 Fab heterodimer with respect to wild type (-(log(KD design) - log(KD wt))) [2]: -0.15 | Kd [3]: 0.22 nM

D3H44 Fab heterodimer, H S186R / L Q124E_Q160E_T180E (H1L1 of LCCA sets 9876 and 9874)
Change in KD with respect to wild type (-(log(KD design) - log(KD wt))) [6]: 0.51 | Kd [7]: 0.05 nM
